The test deals with synthetic IAPP, used as monomer and as sonicated preformed fibrils (seeds) (UniProt P10997).

synthetic IAPP, used as monomer and as sonicated preformed fibrils (seeds) (from UniProt P10997 34-70) (peptide), sequence (P10997 34-70): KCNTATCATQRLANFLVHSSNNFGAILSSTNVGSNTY

Take “synthetic IAPP, used as monomer and as sonicated preformed fibrils (seeds) (from UniProt P10997 34-70) (peptide)”: the lag phase of ThT fibril formation of 2.5 µM monomeric IAPP after adding IAPP seeds corresponding to 100 nM monomeric peptide (240 min without seeds); PBS pH 7.4, 37°C turned out to be 20 min.
